Test results published in patent US9493781B2, “Synthetic brassica-derived chloroplast transit peptides” (DOW AGROSCIENCES LLC, priority 2012, dated 2016).

Tested on: chloroplasts of maize protoplasts
Experiment: Maize protoplast transient assay: microscopy of TraP8-YFP
Type: cell-based, Zea mays
Details: B104 maize protoplasts, 12 hours after transfection
Source text: The Trap8 chimeric chloroplast transit peptide-encoding polynucleotide sequence (SEQ ID NO:5) and the linker-encoding polynucleotide sequence (SEQ ID NO:7) were cloned upstream of the yellow fluorescent protein gene and incorporated into construct pDAB106597 (FIG. 8) for testing via the maize protoplast transient in planta assay. The resulting constructs contained a single plant transcription unit (PTU). The PTU was comprised of the Zea mays Ubiquitin 1 promoter (ZmUbi1 promoter; Christensen, A., Sharrock R., and Quail P., (1992) Maize polyubiquitin genes: structure, thermal perturbation of expression and transcript splicing, and promoter activity following transfer to protoplasts by electroporation, Plant Molecular Biology, 18:675-689), TraP-yellow fluorescent protein fusion gene (TraP8-YFP; US Patent App. 2007/0298412), and Zea mays Peroxidase 5 3′ untranslated region (ZmPer5 3′UTR; U.S. Pat. No. 6,384,207). The constructs were confirmed via restriction enzyme digestion and sequencing.
Seed of Zea mays var. […]
Transfection of 100 to 500 μl of protoplasts (1−5×10^5) was completed by adding the protoplasts to a 2 ml microfuge tube containing about 40 μg of plasmid DNA (pDAB106597), at room temperature. […] Fluorescence of YFP was viewed by microscopy after 12 hours of incubation. […]

B1: TraP8: chimeric chloroplast transit peptide SEQ ID NO:3; N-terminus from Brassica napus EPSPS CTP, C-terminus from Brassica rapa (protein)
chain: MAQSSRICHGVQNPCVIISNLSKSNQNKSPFSVSLKTHQQQRRAYQISSWGLKKSNNGSVIRPVK
modifications: TraP8 chimeric chloroplast transit peptide
notes: N-terminus from Brassica napus EPSPS CTP, C-terminus from Brassica rapa
Localization of YFP fluorescence in maize protoplasts: accumulated within the chloroplasts
